Assays:
[1] = target: Lck protein tyrosine kinase (transfected in 293T cells) (UniProt P06239 2-509, limits assumed); assay: co-immunoprecipitation from transfected 293T cells
Protocol: Figure 4B: FIG. 4(B) is a representative immunoblot, showing association of LAT with signaling molecules in 293T cells. FLAG-tagged LAT was cotransfected with pCEFL/HA-Grb2, pSRα/Grap-myc, pcDNA3/HA-p85 and pcDNA3/PLC-γ1 in the absence or presence of ZAP-70 and Lck PTKs. Brij lysates of transfected 293T cells were immunoprecipitated with anti-FLAG, and association of LAT with tested proteins was determined by blotting with specific antibodies.
In this example, association of LAT with Grb2, Grap, PI3K and PLC-γ1 is shown in 293T cells. To investigate the association of LAT with critical signaling molecules, FLAG-tagged LAT in the pcDNA3 vector was cotransfected in 293T cells with plasmids expressing HA-tagged Grb2, Myc-tagged Grap, HA-tagged p85 subunit of PI3K or PLC-γ1, in the presence or absence of both ZAP-70 and Lck. LAT was immunoprecipitated with anti-FLAG antibody, and associated proteins were detected by blotting with specific antibodies. […] When LAT and the two PTKs were coexpressed with HA-tagged Grb2, both endogenous Grb2 and HA-Grb2 bound to phosphorylated LAT (HA-Grb2 migrates more slowly than endogenous Grb2 on SDS-PAGE). Myc-tagged Grap, the Grb2-like protein, when coexpressed with LAT in the presence of the two PTKs, also associated with phosphorylated LAT. […] HA-tagged p85 or PLC-γ1 also associated with phosphorylated LAT. […]

[2] = target: T1, p85 subunit of PI3K, endogenous, Jurkat T cells (human, UniProt P27986 2-724); assay: anti-myc immunoprecipitation from C305-stimulated stable Jurkat transfectants, immunoblot
T1 construct: mature; also called p85 subunit of PI-3 kinase
Protocol: (§1) Exogenous LAT was immunoprecipitated with anti-myc antibody from cells either left unstimulated or stimulated with C305 (1:50). Samples were analyzed on SDS-PAGE and blotted with 4G10. The same membrane was also blotted with anti-PLC-γ1, anti-p85, anti-Grb2, anti-SOS, and anti-LAT after stripping.
(§2) Myc-tagged LAT was immunoprecipitated with anti-myc antibody from unstimulated or C305 stimulated transfectants. […] The myc-tagged LAT appears as a doublet as does endogenous LAT. […] In addition, mutations at Y171 and Y191 prevented the association of SLP-76, Vav and Cbl, but the 70 kDa tyrosine-phosphorylated protein remained associated with LAT. […] The association with SOS was also disrupted by the double Y to F mutations.

[3] = target: T2, Cbl, endogenous, Jurkat T cells (human, UniProt P22681 1-906, tyrosine phosphorylated in stimulated cells); assay: as above
T2 construct: also called Cbl (120 kD); c-cbl
Protocol: as §1, §2

[4] = target: T3, SLP-76, endogenous, Jurkat T cells (human, UniProt Q13094 1-533, tyrosine phosphorylated in stimulated cells); assay: as above
T3 construct: mature; also called 76 kD protein; SH2-domain Leukocyte Protein
T3 sequence (looked up): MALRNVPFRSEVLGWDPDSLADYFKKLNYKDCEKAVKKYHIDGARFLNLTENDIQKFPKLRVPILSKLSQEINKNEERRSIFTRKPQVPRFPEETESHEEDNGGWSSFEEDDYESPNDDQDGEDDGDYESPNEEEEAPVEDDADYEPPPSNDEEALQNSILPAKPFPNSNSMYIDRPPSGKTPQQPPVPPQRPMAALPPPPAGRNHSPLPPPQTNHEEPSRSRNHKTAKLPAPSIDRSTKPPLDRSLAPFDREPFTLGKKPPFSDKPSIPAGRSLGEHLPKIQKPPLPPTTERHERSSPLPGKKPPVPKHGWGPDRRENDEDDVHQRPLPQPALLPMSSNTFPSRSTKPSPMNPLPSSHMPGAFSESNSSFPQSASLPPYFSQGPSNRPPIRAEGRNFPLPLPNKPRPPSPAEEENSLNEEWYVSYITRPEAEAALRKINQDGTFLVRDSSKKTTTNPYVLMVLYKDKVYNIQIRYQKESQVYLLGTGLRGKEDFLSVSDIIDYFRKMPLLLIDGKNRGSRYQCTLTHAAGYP
Protocol: as §1, §2

[5] = target: T4, Vav, endogenous, Jurkat T cells (human, UniProt P15498 1-845, tyrosine phosphorylated in stimulated cells); assay: as above
T4 construct: also called Vav (100 kD)
T4 sequence (looked up): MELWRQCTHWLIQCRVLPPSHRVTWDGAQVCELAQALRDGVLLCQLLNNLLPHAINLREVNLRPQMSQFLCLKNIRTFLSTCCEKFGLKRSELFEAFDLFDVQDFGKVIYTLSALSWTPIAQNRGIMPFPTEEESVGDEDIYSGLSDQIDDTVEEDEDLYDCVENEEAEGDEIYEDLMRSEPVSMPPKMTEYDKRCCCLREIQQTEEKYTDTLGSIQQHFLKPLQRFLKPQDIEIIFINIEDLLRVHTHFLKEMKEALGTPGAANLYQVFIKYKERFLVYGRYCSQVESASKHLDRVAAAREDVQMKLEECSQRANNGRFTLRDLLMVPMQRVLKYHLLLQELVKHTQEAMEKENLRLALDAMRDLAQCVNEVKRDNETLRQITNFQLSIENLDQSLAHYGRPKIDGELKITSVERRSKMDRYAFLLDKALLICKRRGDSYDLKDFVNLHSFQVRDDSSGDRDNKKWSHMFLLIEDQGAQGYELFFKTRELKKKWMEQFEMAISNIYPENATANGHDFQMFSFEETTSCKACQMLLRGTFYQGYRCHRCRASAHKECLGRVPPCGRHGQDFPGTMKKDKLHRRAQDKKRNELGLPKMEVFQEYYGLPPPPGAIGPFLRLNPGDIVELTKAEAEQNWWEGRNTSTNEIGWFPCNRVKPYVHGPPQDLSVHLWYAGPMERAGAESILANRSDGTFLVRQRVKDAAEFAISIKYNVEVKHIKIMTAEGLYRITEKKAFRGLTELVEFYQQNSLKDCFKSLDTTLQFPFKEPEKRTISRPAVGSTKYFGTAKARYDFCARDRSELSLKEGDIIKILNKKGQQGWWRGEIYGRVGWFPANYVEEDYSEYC
Protocol: as §1, §2

[6] = target: T5, Grb2, endogenous (293T cells and Jurkat T cells) (human, UniProt P62993 1-217); assay: as above
T5 construct: Endogenous protein of human cell lines; also called endogenous Grb2; Grb2 linker protein
Protocol: as §1, §2

Measured: binding result

T1 sequence (P27986 2-724): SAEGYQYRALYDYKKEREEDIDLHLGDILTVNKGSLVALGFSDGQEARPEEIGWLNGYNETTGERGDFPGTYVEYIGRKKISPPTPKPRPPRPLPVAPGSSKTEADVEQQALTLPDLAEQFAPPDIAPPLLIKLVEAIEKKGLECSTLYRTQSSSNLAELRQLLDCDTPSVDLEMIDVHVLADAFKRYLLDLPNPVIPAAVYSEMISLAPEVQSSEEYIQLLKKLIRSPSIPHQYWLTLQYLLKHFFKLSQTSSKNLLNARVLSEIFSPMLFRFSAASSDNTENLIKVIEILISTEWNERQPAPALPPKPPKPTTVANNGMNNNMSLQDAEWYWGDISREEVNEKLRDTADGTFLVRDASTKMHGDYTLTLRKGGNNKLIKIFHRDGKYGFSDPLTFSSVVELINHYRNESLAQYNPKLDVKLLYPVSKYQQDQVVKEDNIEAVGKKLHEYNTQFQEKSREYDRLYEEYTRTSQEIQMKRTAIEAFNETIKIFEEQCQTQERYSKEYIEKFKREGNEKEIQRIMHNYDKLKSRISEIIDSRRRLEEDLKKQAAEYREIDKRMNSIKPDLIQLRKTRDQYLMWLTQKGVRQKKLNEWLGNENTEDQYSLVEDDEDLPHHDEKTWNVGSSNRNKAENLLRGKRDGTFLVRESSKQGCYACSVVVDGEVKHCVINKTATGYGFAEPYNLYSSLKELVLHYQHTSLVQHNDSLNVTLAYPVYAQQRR
T5 sequence (P62993 whole entry): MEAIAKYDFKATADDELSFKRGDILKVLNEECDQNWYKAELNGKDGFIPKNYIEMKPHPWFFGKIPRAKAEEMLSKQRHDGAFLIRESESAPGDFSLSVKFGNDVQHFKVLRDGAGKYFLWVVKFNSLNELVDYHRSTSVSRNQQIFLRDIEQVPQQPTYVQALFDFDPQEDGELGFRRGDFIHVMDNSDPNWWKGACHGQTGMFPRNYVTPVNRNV
Lck protein tyrosine kinase (transfected in 293T cells), sequence (P06239 2-509 limits assumed): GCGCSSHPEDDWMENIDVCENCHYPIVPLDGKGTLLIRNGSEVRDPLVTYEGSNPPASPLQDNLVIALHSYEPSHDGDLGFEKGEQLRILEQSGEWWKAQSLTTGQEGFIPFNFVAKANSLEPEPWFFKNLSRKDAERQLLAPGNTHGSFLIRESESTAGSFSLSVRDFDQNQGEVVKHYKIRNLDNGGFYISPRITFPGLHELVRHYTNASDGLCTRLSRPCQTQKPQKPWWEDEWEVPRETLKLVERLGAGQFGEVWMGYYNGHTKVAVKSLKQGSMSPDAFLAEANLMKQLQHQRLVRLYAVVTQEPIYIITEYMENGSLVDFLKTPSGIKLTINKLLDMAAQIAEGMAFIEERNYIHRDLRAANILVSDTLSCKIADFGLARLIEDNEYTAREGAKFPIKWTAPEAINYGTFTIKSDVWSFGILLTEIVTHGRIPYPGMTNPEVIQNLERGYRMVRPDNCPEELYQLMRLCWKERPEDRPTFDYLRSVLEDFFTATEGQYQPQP

B1: FLAG-tagged LAT, tyrosine phosphorylated (co-expressed in 293T cells with Syk, or with ZAP-70 and Lck or Fyn) (other)
chain: MEEAILVPCVLGLLLLPILAMLMALCVHCHRLPGSYDSTSSDSLYPRGIQFKRPHTVAPWPPAYPPVTSYPPLSQPDLLPIPRSPQPLGGSHRTPSSRRDSDGANSVASYENEEPACEDADEDEDDYHNPGYLVVLPDSTPATSTAAPSAPALSTPGIRDSAFSMESIDDYVNVPESGESAEASLDGSREYVNVSQELHPGAAKTEPAALSSQEAEEVEEEGAPDYENLQELNDYKDDDDK
modifications: tyrosine phosphorylated by co-expressed PTKs; sites not mapped
notes: Made by replacing the Pst I/Cla I fragment of LAT with an oligonucleotide encoding FLAG; also called phosphorylated LAT
no binding: [1]

B2: myc-tagged mutant LAT (Y171/191F), stably expressed in Jurkat cells, C305 stimulated (other)
chain: MEEAILVPCVLGLLLLPILAMLMALCVHCHRLPGSYDSTSSDSLYPRGIQFKRPHTVAPWPPAYPPVTSYPPLSQPDLLPIPRSPQPLGGSHRTPSSRRDSDGANSVASYENEEPACEDADEDEDDYHNPGYLVVLPDSTPATSTAAPSAPALSTPGIRDSAFSMESIDDFVNVPESGESAEASLDGSREFVNVSQELHPGAAKTEPAALSSQEAEEVEEEGAPDYENLQELNSMEQKLISEEDLN
modifications: tyrosine phosphorylated upon stimulation at residues other than Y171 and Y191, less than WT
notes: also called mLAT
not listed: [1]
no binding: all other assays above

Source: patent US7118889 (US Dept. of Health and Human Services, dated 2006)
